Results as given in patent US20140051645A1 (Pieris, published 2014).

T1: human CTLA-4 on transfected CHO-K1 cells (human, UniProt P16410 36-223)
T1 construct: whole, on cells; also called human CTLA4-transfected CHO cells; CTLA-4 expressing CHO cells
T1 sequence (looked up): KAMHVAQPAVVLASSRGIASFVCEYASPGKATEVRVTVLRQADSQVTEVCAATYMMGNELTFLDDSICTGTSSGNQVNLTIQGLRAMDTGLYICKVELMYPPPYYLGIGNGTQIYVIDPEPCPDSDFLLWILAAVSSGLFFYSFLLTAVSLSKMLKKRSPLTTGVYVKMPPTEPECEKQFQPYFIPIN

T2: human CTLA-4-Fc (Chimerigen) (human, UniProt P16410 36-161, limits assumed)
T2 construct: Bought fusion protein; also called hCTLA4-Fc; not shown: It was captured by an anti-human IgG-Fc antibody
T2 sequence (looked up): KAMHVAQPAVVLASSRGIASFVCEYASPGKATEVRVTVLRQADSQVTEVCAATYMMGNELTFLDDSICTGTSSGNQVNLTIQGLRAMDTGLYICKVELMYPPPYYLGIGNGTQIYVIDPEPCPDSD


What was measured:
[1] = target: T1, human CTLA-4 on transfected CHO-K1 cells; test: competition FACS on human CTLA4-transfected CHO-K1 cells; blocked ligand: biotinylated human B7.1 at 10 nM, detected with streptavidin-phycoerythrin
[2] = target: T1, human CTLA-4 on transfected CHO-K1 cells; test: competition FACS on human CTLA4-transfected CHO-K1 cells; competitor biotinylated human B7.1 at 10 nM
Protocol: Different concentrations of the Lcn2 muteins or, as a positive control, of the antibody BNI3 (BD Bioscience) were mixed with recombinant biotinylated human B7.1 (Ancell) at 10 nM final concentration and added to 100 000 of the CTLA-4 transfected CHO-K1 cells which were generated according to the description in example 16 of PCT/EP 2005/012640. Samples were incubated at 4° C. for 2 h, washed twice in PBS containing 2% w/v BSA, and detection of bound B7.1 was accomplished by incubation with streptavidin-phycoerythrin for 30 min at 4° C. Mean fluorescence intensities were determined by flow cytometry and fitted to a sigmoidal dose response model using Prism (GraphPad) as depicted in FIG. 4 to determine EC50 values for Lcn2 muteins from sequences of SEQ ID NO: 12 to SEQ ID NO: 17 which are summarized in Table 3.

[3] = target: T3, murine CTLA4-Fc (R&D Systems) (mouse, UniProt P09793 36-162, limits assumed); test: SPR, Biacore T100, 25 C; CTLA4-Fc captured on anti-human IgG-Fc, mutein as analyte; 1:1 Langmuir fit
T3 construct: Bought fusion protein; also called mouse CTLA4; not shown: It was captured by an anti-human IgG-Fc antibody
Protocol: (§1) Real time affinity analysis was performed at 25° C. using a Biacore T100 system (GE Healthcare). Anti-human IgG-Fc antibody (Jackson ImmounoResearch Laboratories) was immobilized on a CM5 sensor chip using standard amine coupling chemistry, resulting in a ligand density of 8000 resonance units (RU). […] Subsequently, the Lcn2 muteins (SEQ ID: No 12 to SEQ ID NO: 17) were applied in an appropriate dilution series in HBS-EP at a flow rate of 30 μl/min. Regeneration of the derivatized chip surface was achieved by a combination of first basic (2.5 mM NaOH) and then acidic (10 mM glycine, pH 1.5) buffer, each for 8 and 16 s, respectively. […] To correct for buffer effects and baseline drift, double referencing was used throughout. Kinetic data evaluation was performed using the Biacore T100 Evaluation Software (v. 2.0.1) using the Langmuir 1:1 binding model and global fitting.

[4] = target: T2, human CTLA-4-Fc (Chimerigen); test: as above
Protocol: as §1

[5] = target: T2, human CTLA-4-Fc (Chimerigen); test: screening ELISA of crude lysates: mutein captured by T7 mAb, limited soluble human CTLA4-Fc; in some cases competition ELISA with mAb BNI3
Protocol: Therein, NGAL variants equipped with a T7 detection tag (Novagen) as well as a Strep-tag II affinity tag (IBA) were soluble expressed in a 96 well microtiter plate using the E. coli strain TG1/F with phNGAL37 SEQ ID NO: 10. This vector corresponds to phNGAL15 SEQ ID NO: 11 as described in the following example 4 with an N-terminal T7 tag consisting of 11 amino acids ([…]). Lipocalin mutein expression was induced overnight at 22° C. at 700 rpm with anhydrotetracycline (0.2 μg/ml) at an OD₅₅₀ of 0.6. Afterwards, cells were lysed (100 mM Na-borate, pH 8.0, 80 mM NaCl, 1 mM EDTA, 0.025% w/v lysozyme) for 1 h under agitation. To minimize non-specific binding in the subsequent ELISA screen, the crude cell lysates were supplemented with 2% w/v BSA and 0.1% v/v Tween 20 and tested in ELISA for binding to human CTLA-4-Fc (Chimerigen).
In a reverse ELISA approach soluble expressed muteins from the crude cell lysate were captured via immobilized T7 mAb (5 μg/ml, Novagen) on wells of black Fluotrac 600 ELISA plates (Greiner; 384 well). Neutravidin, 5 μg/ml, and 3% milk were used as negative control. […] Subsequently plates were washed five times and bound target was detected via an goat anti-human Fc monoclonal antibody-HRP conjugate (Jackson ImmunoResearch), diluted 1:5.000 in PBST/0.1. Therefore, QuantaBlu™ (Pierce; 1:2 diluted in PBS/T 0.1%) was used as fluorogenic HRP substrate. After 45 min of signal development at room temperature fluorescence was excited at a wavelength of 320 nm (±12.5 nm) and measured at 430 nm (±17.5 nm) in a GENiosPlus plate reader (Tecan).
In some cases a competition ELISA was carried out where CTLA4-Fc (2.5 μg/ml) was captured in ELISA plates via an immobilized mouse anti-human IgG Fc Gamma fragment-specific antibody (Jackson ImmunoResearch (5 μg/ml) and incubated for 1 h with a pre-mixture of the mutein extracts and different concentrations of a competitive CTLA4-specific mAb BNI3 (BD Bioscience) at concentrations of 30, 100, and 200 nM, respectively.

Molecule	IC50 (read off the curve) [1] [pM]	EC50 [2] [pM]	Kd [3] [pM]	koff [3] [s⁻¹]	kon [3] [M⁻¹ s⁻¹]	Kd [4] [pM]	koff [4] [s⁻¹]	kon [4] [M⁻¹ s⁻¹]	binding result [5]
BNI3 (antibody)	3000								
hNGALM3 (designed binder) QDSTSDLIPAPPLSKVPLQQNFQDNQFHGKWYVVGLAGNRILRQDQHPMLMYATIYELKGDKSYNVTSVISSHKKCLYPIATFVPGSQPGEFTLGNIKSYGDKVSYLVRVVSTDYNQYAVVFFKHADTNYESFSITIYGRTKELASELKENFIRFSKSLGLPENHIVFPVPIDQCIDGSAWSHPQFEK		7600	672	0.000134	199000	460	0.000194	422000	
hNGALM5 (designed binder) QDSTSDLIPAPPLSKVPLQQNFQDNQFHGKWYVVGLAGNRILRSDQHPMRMYATIYELKGDKSYNVTSVISSHKKCLYTIATFVPGSQPGEFTLGNIKSYGDKWSYLVRVVSTDYNQYAVVFFKHADTNYESFSITIYGRTKELASELKENFIRFSKSLGLPENHIVFPVPIDQCIDGSAWSHPQFEK		9000	320	0.000261	813000	740	0.000281	380000	
hNGALM6 (designed binder) QDSTSDLIPAPPLSKVPLQQNFQDNQFHGKWYVVGLAGNRILRSDQHPMPMYATIYELKGDKSYNVTSVISSHKKCLYSIATFVPGSQPGEFTLGNIKSYGDKESYLVRVVSTDYNQYAVVFFKYASDNDESFSITIYGRTKELASELKENFIRFSKSLGLPENHIVFPVPIDQCIDGSAWSHPQFEK		10300	66100	4.21	6.36e+07	588	0.000197	335000	
hNGALM7 (designed binder) QDSTSDLIPAPPLSKVPLQQNFQDNQFHGKWYVVGLAGNRILRLDQHPMPMYATIYELKGDKSYNVTSVISSHKKCLYPIATFVPGSQPGEFTLGNIRSYGDKTSYLVRVVSTDYNQYAVVFFKHADTNYESFSITIYGRTKELASELKENFIRFSKSLGLPENHIVFPVPIDQCIDGSAWSHPQFEK		11000	413	0.000108	261000	659	0.000517	784000	
hNGALM2 (designed binder) QDSTSDLIPAPPLSKVPLQQNFQDNQFHGKWYVVGLAGNRLLRDDQHPMDMYATIYELKGDKSYNVTSVISSHKKCLYPIATFVPGSQPGEFTLGNIKSYGDKWSYLVRVVSTDYNQYAVVFFKHADTNYESFSITIYGRTKELASELKENFIRFSKSLGLPENHIVFPVPIDQCIDGSAWSHPQFEK		6000	3050	0.000907	298000	686	0.000388	565000	
SEQ ID NO 14 (designed binder, Screening construct in crude E. coli lysate, with T7 tag, mutein and Strep-tag II) MASMTGGQQMGQDSTSDLIPAPPLSKVPLQQNFQDNQFHGKWYVVGLAGNRILRDDQHPMPMYATIYELKGDKSYNVTSVISSHKKCLYPIATFVPGSQPGEFTLGNIKSYGDKWSYLVRVVSTDYNQYAVVFFKHADSNYESFSITIYGRTKELASELKENFIRFSKSLGLPENHIVFPVPIDQCIDG									binds
SEQ ID NO 13 (designed binder, Screening construct in crude E. coli lysate, with T7 tag, mutein and Strep-tag II) MASMTGGQQMGQDSTSDLIPAPPLSKVPLQQNFQDNQFHGKWYVVGLAGNRILRQDQHPMLMYATIYELKGDKSYNVTSVISSHKKCLYPIATFVPGSQPGEFTLGNIKSYGDKVSYLVRVVSTDYNQYAVVFFKHADTNYESFSITIYGRTKELASELKENFIRFSKSLGLPENHIVFPVPIDQCIDG									binds
SEQ ID NO 17 (designed binder, Screening construct in crude E. coli lysate, with T7 tag, mutein and Strep-tag II) MASMTGGQQMGQDSTSDLIPAPPLSKVPLQQNFQDNQFHGKWYVVGLAGNRILRLDQHPMPMYATIYELKGDKSYNVTSVISSHKKCLYPIATFVPGSQPGEFTLGNIRSYGDKTSYLVRVVSTDYNQYAVVFFKHADTNYESFSITIYGRTKELASELKENFIRFSKSLGLPENHIVFPVPIDQCIDG									binds
SEQ ID NO 16 (designed binder, Screening construct in crude E. coli lysate, with T7 tag, mutein and Strep-tag II) MASMTGGQQMGQDSTSDLIPAPPLSKVPLQQNFQDNQFHGKWYVVGLAGNRILRSDQHPMPMYATIYELKGDKSYNVTSVISSHKKCLYSIATFVPGSQPGEFTLGNIKSYGDKESYLVRVVSTDYNQYAVVFFKYASDNDESFSITIYGRTKELASELKENFIRFSKSLGLPENHIVFPVPIDQCIDG									binds
SEQ ID NO 15 (designed binder, Screening construct in crude E. coli lysate, with T7 tag, mutein and Strep-tag II) MASMTGGQQMGQDSTSDLIPAPPLSKVPLQQNFQDNQFHGKWYVVGLAGNRILRSDQHPMRMYATIYELKGDKSYNVTSVISSHKKCLYTIATFVPGSQPGEFTLGNIKSYGDKWSYLVRVVSTDYNQYAVVFFKHADTNYESFSITIYGRTKELASELKENFIRFSKSLGLPENHIVFPVPIDQCIDG									binds
hNGALM4 (designed binder) QDSTSDLIPAPPLSKVPLQQNFQDNQFHGKWYVVGLAGNRILRDDQHPMPMYATIYELKGDKSYNVTSVISSHKKCLYPIATFVPGSQPGEFTLGNIKSYGDKWSYLVRVVSTDYNQYAVVFFKHADSNYESFSITIYGRTKELASELKENFIRFSKSLGLPENHIVFPVPIDQCIDG		9500	584	0.000129	221000	346	0.000186	539000	
